In patent publication US20100325744A1 (published 2010):

Target: the molecule itself
Assay: monomer to dimer conversion (% monomer vs concentration); self-association

| Protein | EC50 [µM] |
| --- | --- |
| L236V (protein) ASTKGPSVFPLAPCSRSTSESTAALGCLVKDYFPEPVTVSWNSGALTSGVHTFPAVLQSSGLYSLSSVVTVPSSSLGTKTYTCNVDHKPSNTKVDKRVAPEFLGGPSVFLFPPKPKDTLMISRTPEVTCVVVDVSQEDPEVQFNWYVDGVEVHNAKTKPREEQFNSTYRVVSVLTVLHQDWLNGKEYKCKVSNKGLPSSIEKTISKAKGQPREPQVYTLPPSQEEMTKNQVSLTCVVKGFYPSDIAVEWESNGQPENNYKTTPPVLDSDGSFFLYSRLTVDKSRWQEGNVFSCSVMHEALHNHYTQKSLSLSLGK | 2.16 |
| WT (protein) ASTKGPSVFPLAPCSRSTSESTAALGCLVKDYFPEPVTVSWNSGALTSGVHTFPAVLQSSGLYSLSSVVTVPSSSLGTKTYTCNVDHKPSNTKVDKRVAPEFLGGPSVFLFPPKPKDTLMISRTPEVTCVVVDVSQEDPEVQFNWYVDGVEVHNAKTKPREEQFNSTYRVVSVLTVLHQDWLNGKEYKCKVSNKGLPSSIEKTISKAKGQPREPQVYTLPPSQEEMTKNQVSLTCLVKGFYPSDIAVEWESNGQPENNYKTTPPVLDSDGSFFLYSRLTVDKSRWQEGNVFSCSVMHEALHNHYTQKSLSLSLGK | 0.039 |
| Y275A (protein) ASTKGPSVFPLAPCSRSTSESTAALGCLVKDYFPEPVTVSWNSGALTSGVHTFPAVLQSSGLYSLSSVVTVPSSSLGTKTYTCNVDHKPSNTKVDKRVAPEFLGGPSVFLFPPKPKDTLMISRTPEVTCVVVDVSQEDPEVQFNWYVDGVEVHNAKTKPREEQFNSTYRVVSVLTVLHQDWLNGKEYKCKVSNKGLPSSIEKTISKAKGQPREPQVYTLPPSQEEMTKNQVSLTCLVKGFYPSDIAVEWESNGQPENNYKTTPPVLDSDGSFFLASRLTVDKSRWQEGNVFSCSVMHEALHNHYTQKSLSLSLGK | 2.19 |
| F273A (protein) ASTKGPSVFPLAPCSRSTSESTAALGCLVKDYFPEPVTVSWNSGALTSGVHTFPAVLQSSGLYSLSSVVTVPSSSLGTKTYTCNVDHKPSNTKVDKRVAPEFLGGPSVFLFPPKPKDTLMISRTPEVTCVVVDVSQEDPEVQFNWYVDGVEVHNAKTKPREEQFNSTYRVVSVLTVLHQDWLNGKEYKCKVSNKGLPSSIEKTISKAKGQPREPQVYTLPPSQEEMTKNQVSLTCLVKGFYPSDIAVEWESNGQPENNYKTTPPVLDSDGSFALYSRLTVDKSRWQEGNVFSCSVMHEALHNHYTQKSLSLSLGK | 3.06 |
